Here are results for two substances from patent US20230270857A1.

The target in the experiment is CD3 on ex vivo expanded human T cells (Homo sapiens) (UniProt P07766). The experiment can be described thus: flow cytometry referenced to quantum beads. Background: A flow cytometer gives signals particle by particle.

In turn, “GD2-BsAb (hu3F8-BsAb, anti-GD2 hu3F8 x anti-CD3 huOKT3, IgG-[L]-scFv format) (bispecific antibody)” returned a molar amount of BsAb bound per T cell (zeptomoles per T cell) of 1 to 35.
In the case of “HER2-BsAb (trastuzumab x huOKT3, IgG-[L]-scFv format) (bispecific antibody)” it was 1 to 35.
